Article PMC9729729, “Development of anti-membrane type 1-matrix metalloproteinase nanobodies as immunoPET probes for triple negative breast cancer imaging” (Frontiers in Medicine, 2022)

B1: 3CMP75 displayed on phage (monoclonal phage clone) (VHH)
VHH: QVQLQESGGGLVQAGGSLRLSCTASGRTFSSNAMAWFRLAPGKEREFVAAISGNGGSTTYADSVKGRVTISRDNAKNTVYLHMSSLKPEDTAVYYCNQRNFGRDGTLGDYWGNGTQVTVSS
notes: also called 3CMP75 phage clone; source: E. coli TG1 with phagemid, VCS-M13 helper phage, culture supernatant
B2: nanobody 3CMP75 (CDR3 group 6), purified (VHH)
VHH: QVQLQESGGGLVQAGGSLRLSCTASGRTFSSNAMAWFRLAPGKEREFVAAISGNGGSTTYADSVKGRVTISRDNAKNTVYLHMSSLKPEDTAVYYCNQRNFGRDGTLGDYWGNGTQVTVSS
notes: Llama-derived VHH selected by phage display against CAT-MT1-MMP; also called Nb 3CMP75; 2CMP75 (as printed in two methods paragraphs); source: E. coli WK6 periplasm (pMECS), purified (IMAC HisTrap, SEC Superdex 75)
B3: [^68Ga]Ga-NOTA-3CMP75 (VHH)
VHH: QVQLQESGGGLVQAGGSLRLSCTASGRTFSSNAMAWFRLAPGKEREFVAAISGNGGSTTYADSVKGRVTISRDNAKNTVYLHMSSLKPEDTAVYYCNQRNFGRDGTLGDYWGNGTQVTVSS
notes: also called radiolabeled-NOTA conjugate of 3CMP75; source: E. coli WK6 periplasm, purified, conjugated with p-SCN-Bn-NOTA and labelled with 68Ga, PD-10 purified
B4: 3TPA14 displayed on phage (monoclonal phage clone) (VHH)
VHH: QVQLQESGGGLVQAGGSLRLSCAASGLILSGFSTGWFRQAPGKEREFLSTISSAGTRTYYADSVKGRFTISRDNAKNTVYLQMNRLKPEDAGVYYCTGYGRRSMPALRPEEWTYWGQGTQVTVSS
notes: also called 3TPA14 phage clone; source: E. coli TG1 with phagemid, VCS-M13 helper phage, culture supernatant
B5: [^68Ga]Ga-NOTA-3TPA14 (VHH)
VHH: QVQLQESGGGLVQAGGSLRLSCAASGLILSGFSTGWFRQAPGKEREFLSTISSAGTRTYYADSVKGRFTISRDNAKNTVYLQMNRLKPEDAGVYYCTGYGRRSMPALRPEEWTYWGQGTQVTVSS
notes: also called radiolabeled-NOTA conjugate of 3TPA14; source: E. coli WK6 periplasm, purified, conjugated with p-SCN-Bn-NOTA and labelled with 68Ga, PD-10 purified
B6: nanobody 3TPA14 (CDR3 group 1), purified (VHH)
VHH: QVQLQESGGGLVQAGGSLRLSCAASGLILSGFSTGWFRQAPGKEREFLSTISSAGTRTYYADSVKGRFTISRDNAKNTVYLQMNRLKPEDAGVYYCTGYGRRSMPALRPEEWTYWGQGTQVTVSS
notes: Llama-derived VHH selected by phage display against CAT-MT1-MMP; also called Nb 3TPA14; source: E. coli WK6 periplasm (pMECS), purified (IMAC HisTrap, SEC Superdex 75)

Legend:
[1] = molecular target: T1, catalytic domain of human MT1-MMP (residues 119-290) (Homo sapiens, UniProt P50281); assay: ELISA; monoclonal phage ELISA; MaxiSorp plates coated with CAT-MT1-MMP, MT2-MMP or MT3-MMP at 4°C overnight (BSA as negative control); culture supernatants with phages applied; anti-M13-HRP, OPD, OD490; details: one partner purified
T1 construct: membrane type 1-matrix metalloproteinase (MT1-MMP), human, catalytic domain, residues 119-290, expressed from pET3a; also called CAT-MT1-MMP; catalytic domain of membrane type 1-matrix metalloproteinase

[2] = molecular target: T1, catalytic domain of human MT1-MMP …; assay: ELISA; MaxiSorp plates coated overnight at 4°C with CAT-MT1-MMP; blocked with 3% BSA in PBS; serial dilutions of nanobodies, 90 min at 37°C; HRP anti-HA mAb, TMB, OD450; details: both partners purified
[3] = molecular target: extracellular domain (ed) of MT1-MMP, Ala21-Ser538, Arg108Pro (Homo sapiens (species ; …, UniProt P50281, Arg108Pro); assay: SPR; edMT1-MMP amine-coupled on a CM5 chip (104 RU); nanobody 16-250 nM, 3 min at 30 μl/min, 30 min dissociation; HBS-EP+ buffer; 25°C; Biacore X100; 1:1 binding model; details: both partners purified

Binder | binding result [1] | binding result [2] | Kd [3]
B1 | binds |  | 
B2 |  | binds | 35 ± 3 nM
B3 |  | binds | 
B4 | binds |  | 
B5 |  | binds | 
B6 |  | binds | 15.8 ± 0.3 nM
